Test results published in patent US20250051407A1, “De novo designed sequence-specific DNA binding proteins” (University of Washington, priority 2023, published 2025).

Tested on: synTF-specific cis-regulatory elements (CRE) in HEK293T cells
Assay: Transcriptional activation by synTFs in HEK293T cells (ENGRAM)
Type: cell-based
Details: DBP fused to GCN4 dimerization domain and VP64; HEK293T cells expressing PEmax; dependent on spacing between motifs
Procedure, shortened: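 GCN4–VP64 fusions were co-transfected into PEmax-expressing HEK293T cells with barcoded pegRNA recorders driven by CREs of 4 palindromic repeats (spacings 1, 3 or 5 bp), with a TCF-LEF recorder as control (ratio 2:2:2:1). After 2 days, the HEK3 DNA TAPE was sequenced. Activation is given as barcode fold change versus control, in triplicate.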

B1: DBP48: designed DNA-binding protein, SEQ ID NO: 22, DNA target D (protein)
chain: MTPEEIAEAKRIGKEVKERRKELGLTQRELAEKLGVSRSTVSDIENGRRLPSEELLKKIKEILGV
Fold activation of synTFs measured as normalized barcode abundance in the DNA TAPE: didn't show detectable activation
